Each block holds one molecule with its values, some of them ahead of it. * marks the point of attachment. Decanoyl = CCCCCCCCCC(=O)*; CH2Cl = ClC*
Columns and labels:
[1] = test system: T1, D-9Rac/am
T1 sequence: XXXXXXXXXXXXX

[2] = test system: T2, D-6R
T2 sequence: XXXXXXXXXX

[3] = test system: L-Bel1
[4] = test system: T3, Decanoyl-Arg-Val-Lys-Arg-CMK (FI-I, CALBIOCHEM)
T3 sequence: RVKR

[5] = target: Recombinant furin; experiment: Ki for inhibition of furin, given as the comparison in the Boc-RVRR-MCA enzyme assay
Recombinant furin, sequence (P09958 108-715): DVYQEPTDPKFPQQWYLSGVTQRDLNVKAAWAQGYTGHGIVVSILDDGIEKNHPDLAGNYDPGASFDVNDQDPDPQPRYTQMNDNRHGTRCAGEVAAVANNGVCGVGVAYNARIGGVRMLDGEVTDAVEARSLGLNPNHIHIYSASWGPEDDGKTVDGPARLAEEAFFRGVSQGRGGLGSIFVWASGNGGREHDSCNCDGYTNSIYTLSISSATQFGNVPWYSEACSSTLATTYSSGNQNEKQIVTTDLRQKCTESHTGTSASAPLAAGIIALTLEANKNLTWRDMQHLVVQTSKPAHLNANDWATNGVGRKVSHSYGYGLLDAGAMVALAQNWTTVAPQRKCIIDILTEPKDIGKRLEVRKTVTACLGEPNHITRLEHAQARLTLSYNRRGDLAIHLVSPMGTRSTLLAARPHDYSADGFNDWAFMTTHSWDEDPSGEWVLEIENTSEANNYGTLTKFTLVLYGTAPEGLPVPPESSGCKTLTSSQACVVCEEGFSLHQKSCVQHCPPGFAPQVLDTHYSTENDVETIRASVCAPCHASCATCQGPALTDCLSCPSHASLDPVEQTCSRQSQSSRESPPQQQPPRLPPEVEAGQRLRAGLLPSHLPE

Molecule: Recombinant furin
in vitro furin activity (cleavage of Boc-RVRR-MCA) [1]: inhibited to completion in vitro furin activity
in vitro furin activity (cleavage of Boc-RVRR-MCA) [2]: inhibited to completion in vitro furin activity
in vitro furin activity (cleavage of Boc-RVRR-MCA) [3]: inhibited to completion in vitro furin activity
in vitro furin activity (cleavage of Boc-RVRR-MCA) [4]: furin activity is inhibited by the specific furin inhibitor Decanoyl (d)-RVKR-chloromethylketone (CMK)

Ki [5]: 1 nM
B1: Decanoyl-Arg-Val-Lys-Arg-CMK (FI-I, CALBIOCHEM) (peptide)
peptide: Decanoyl-RVKR-CH2Cl
